Test results published in WO2018134389A1.
pKd: −log10 of the molar value.

Target: DC-SIGN ECD immobilised on a streptactin-functionalised SPR surface (human) (UniProt Q9NNX6)
Sequence (Q9NNX6 59-404): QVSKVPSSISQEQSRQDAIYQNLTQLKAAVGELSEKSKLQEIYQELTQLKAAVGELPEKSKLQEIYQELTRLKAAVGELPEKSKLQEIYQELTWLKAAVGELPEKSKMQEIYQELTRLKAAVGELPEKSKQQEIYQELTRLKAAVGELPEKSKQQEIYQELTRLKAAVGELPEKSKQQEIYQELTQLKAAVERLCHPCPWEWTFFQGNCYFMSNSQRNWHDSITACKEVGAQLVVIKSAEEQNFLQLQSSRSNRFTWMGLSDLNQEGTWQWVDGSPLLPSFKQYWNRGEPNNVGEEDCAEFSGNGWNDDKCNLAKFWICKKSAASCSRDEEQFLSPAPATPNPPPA

“HCMV gB treated with a(2 to 3,6)-neuraminidase (sialic acids removed) (from UniProt P13201 25-907) (ligand)” was tested. Which pKd did it give?
The pKd was 10.60.
